Test results from patent EP4631972A1, “SITE-SPECIFIC COUPLED PEGYLATED INTERLEUKIN-2 MUTANT WITH RECEPTOR AFFINITY PREFERENCE AND USE THEREOF” (priority 2022, dated 2024).
Where two headings read alike, the source gives them in different places. Side chains are listed from the residue outwards. maleimide = maleimide group on PEG that conjugates to a cysteine thiol

Columns and labels:
[1] = molecular target: T1, IL-2αβγ triple receptor (Homo sapiens, UniProt P01589+P14784+P31785); assay: STAT5 reporter gene assay, activation of IL-2αβγ triple receptor in 293EC18/αβγ/JAK3/STAT5 cells; assay type: cell-based; conditions: Example 3, Table 2 and Figure 3
T1 construct: Uniprot P01589 1Met-551Ile constructed into plasmid pcDNA3.1/zeo; Uniprot P14784 1Met-551Val constructed into plasmid pcDNA3.1(+); Uniprot P31785 1Met-551Thr was constructed into plasmid pcDNA3.1/zeo; expressed in transfected cells; host or cells: 293EC18 cells, transient co-transfection with pCMV/JAK3 and PGL4.52/STAT5RE
T1 sequence (P01589 22-272): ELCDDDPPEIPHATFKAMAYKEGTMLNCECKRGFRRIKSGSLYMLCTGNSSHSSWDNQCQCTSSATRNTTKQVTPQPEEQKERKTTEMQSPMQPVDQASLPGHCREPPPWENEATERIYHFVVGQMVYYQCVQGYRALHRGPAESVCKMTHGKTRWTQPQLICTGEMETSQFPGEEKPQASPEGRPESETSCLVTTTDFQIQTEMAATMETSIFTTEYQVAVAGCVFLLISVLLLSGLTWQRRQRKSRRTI
T1 sequence (P14784 27-551): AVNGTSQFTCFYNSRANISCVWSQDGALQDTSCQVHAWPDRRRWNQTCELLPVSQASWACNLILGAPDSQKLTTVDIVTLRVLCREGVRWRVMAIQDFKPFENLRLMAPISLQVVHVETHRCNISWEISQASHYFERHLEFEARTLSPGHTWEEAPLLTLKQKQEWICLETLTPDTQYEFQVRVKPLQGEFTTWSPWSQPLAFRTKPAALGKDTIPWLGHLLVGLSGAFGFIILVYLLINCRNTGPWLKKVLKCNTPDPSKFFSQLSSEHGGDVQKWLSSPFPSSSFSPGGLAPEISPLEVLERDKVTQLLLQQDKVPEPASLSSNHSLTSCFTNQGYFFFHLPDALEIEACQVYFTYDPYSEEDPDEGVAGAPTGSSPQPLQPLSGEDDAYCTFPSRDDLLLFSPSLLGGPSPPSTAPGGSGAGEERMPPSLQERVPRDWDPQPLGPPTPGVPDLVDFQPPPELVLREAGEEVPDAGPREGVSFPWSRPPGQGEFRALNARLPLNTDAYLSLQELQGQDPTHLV
T1 sequence (P31785 23-369): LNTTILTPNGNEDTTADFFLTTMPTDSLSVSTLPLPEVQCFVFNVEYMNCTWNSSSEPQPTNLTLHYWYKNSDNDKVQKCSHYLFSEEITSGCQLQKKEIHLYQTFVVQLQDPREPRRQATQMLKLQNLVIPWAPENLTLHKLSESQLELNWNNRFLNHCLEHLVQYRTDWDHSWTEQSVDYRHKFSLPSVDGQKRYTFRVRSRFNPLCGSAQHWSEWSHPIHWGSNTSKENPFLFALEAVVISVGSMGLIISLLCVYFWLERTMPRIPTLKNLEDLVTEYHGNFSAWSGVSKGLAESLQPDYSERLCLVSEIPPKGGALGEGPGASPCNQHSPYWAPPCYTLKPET
Description: Since the binding of IL-2 to the β and γ subunits of its receptor induces STAT5 phosphorylation, which subsequently leads to dimerization and translocation into the nucleus to promote target gene transcription, this example evaluates the ability of the mutant IL-2 polypeptides to induce signaling through the IL-2 receptor by measuring STAT5 phosphorylation.
Adherent 293EC18 cells were cultured to about 90% confluence using conventional methods. After trypsin digestion, the cells were resuspended in cell culture medium to 4×10^5 cells/ml and 50 µl/well were added to two 96-well cell culture plates. After incubation at 37°C for 48 h, the supernatant was aspirated and fresh culture medium was added. […]
Each IL2 mutant was diluted 4-fold in a gradient manner using PBS buffer, with a total of 11 dilutions and a starting concentration of 65.2 nM. […] Bio-Lite Luciferase Assay System reagents that have been mixed and equilibrated to room temperature were added to the cell culture plates to be tested at 100 µl/well, placed on a microplate shaker at 450 rpm to mix for 2 minutes, then allowed to stand at room temperature for 3 minutes, and the chemiluminescence value was detected with an enzyme plate reader.
The logarithm of the final concentration of each IL-2 mutant sample was used as the X-axis, and the chemiluminescence detection results were used as the Y-axis for plotting. Data were analyzed using the four-parameter logistic regression model in GraphPad Prism 9. Table 2 EC50 values for the activation of the IL-2αβγ triple receptor by PEG-IL-2 mutants as determined by a reporter gene assay.
According to the method of Example 3, each polyethylene glycol-modified mutant obtained in this example was assessed for the binding preference to the IL2 receptors by a reporter assay. Table 4 EC50 values for the activation of the IL-2αβγ triple receptor by PEG-IL-2 mutants as determined by a reporter gene assay. […]

[2] = molecular target: T2, IL-2Rαβγ triple receptor (UniProt P01589 22-272; P14784 27-551; P31785 23-369); assay: cell-based or functional assay
T2 sequence (looked up) 1: T1 sequence (P01589 22-272)
T2 sequence (looked up) 2: T1 sequence (P14784 27-551)
T2 sequence (looked up) 3: T1 sequence (P31785 23-369)

[3] = Effects on body weight and physiological characteristics of mice; conditions: 1 mg/kg s.c. once every three days, three times
Description: SPF grade Balb/c mice were purchased, with 3 mice in each group. Administration was started on the day of grouping. The test substance or PBS (negative control group) was administered subcutaneously at a dose of 1 mg/kg, once every three days, for a total of three times. The mice were weighed before each administration and three days after the third administration .

[4] = system: Treg cells; assay: P-STAT5 activation in Treg cells of human PBMCs (flow cytometry); assay type: cell-based; conditions: P-STAT5 MFI in CD3+/CD4+/CD25+ cells of human PBMCs, 30 min stimulation
Description: In the example, the activation effect of each mutant prepared in Example 6 on P-STAT5 in different cell subsets (Tregs, CD8+T cells, NK cells) from human PBMCs (Miaoshun Biotechnology) was detected.
Human PBMC cells were thawed and resuspended to 1.5×10^6 cells/ml in RPMI1640 medium containing 10% FBS. 100 µl was added to each well of a V-bottom 96-well culture plate. Each IL-2 mutant prepared in Example 6 was diluted 10-fold in series: 1000 nM was used as the working concentration for the first well, and then 100 µl/well of each serial dilution was added to each cultured cell, stimulated at 37°C for 30 min, and the reaction was terminated on ice. The cells were treated with a commercial fixative and permeabilization agent (BD biosciences 558049 & 558050), and stained with antibodies against CD3, CD4, CD25, and CD8 according to conventional methods. P-STAT5 antibody staining was also performed (Table 7) to detect the mean fluorescence intensity (MFI) of P-STAT5 in CD3+/CD4+/CD25+ (Treg cells) and CD8+/CD3+ cells ([…]) by flow cytometry.

[5] = Pharmacokinetic study in mice, single administration, plasma concentration by ELISA; conditions: 1 mg/kg s.c. single administration
Description: Balb/c mice were purchased, with 4 mice in each group. Each IL-2 mutant to be tested was administered subcutaneously once at a dose of 1 mg/kg. Blood was collected from the orbit at different time points after administration, and the plasma was separated and the plasma drug concentration was detected by ELISA. The main pharmacokinetic parameters were calculated, and C-T curve was plotted.

[6] = molecular target: T2, IL-2Rαβγ triple receptor; assay: cell-based or functional assay; remark: listed apart in the source
[7] = molecular target: T2, IL-2Rαβγ triple receptor; assay: cell-based or functional assay; remark: listed apart in the source

80k-1PEG-IL2-D84C: IL-2 (C125S) mutant D84C with one 80k PEG-maleimide conjugated to cysteine 84
activation of the IL-2Rαβγ triple receptor compared with the control IL2-N88R [1]: even stronger activation

rh IL-2 (from UniProt P60568 21-153) (ligand)
Activation of IL-2αβγ receptor EC50 (STAT5 luciferase reporter gene assay) [2]: 8.48 pM
Activation of IL-2αβγ triple receptor EC50 (STAT5 luciferase reporter gene assay) [2]: 4.11 pM
EC50 for activation of the IL-2αβγ triple receptor (STAT5 luciferase reporter gene assay) [2]: 5.43 pM

80K-1PEG-IL2-N88R-D109C: IL-2 mutant N88R, D109C, conjugation site 109, PEG molecular weight 80kD
toxic side effects on mice [3]: relatively obvious toxic side effects
visual observation of the mice [3]: listless, had poor motility
body weight compared with negative control ([3]; three days after the third dose): significantly lower than that of the negative control

40K-1PEG-IL2-N88R-N77C: IL2-N88R-N77C with 40 kDa PEG conjugated to the cysteine at position 77
EC50 [4]: 38 nM
AUC inf [5]: 307.71336 ± 53.89144 µg·h/mL
AUClast [5]: 306.70767 ± 53.98797 µg·h/mL
CL [5]: 3.32±0.5
Cmax [5]: 6581.76 ± 1168.04 ng/mL
MRT [5]: 31.57 ± 1.16 h
T1/2 [5]: 11.33 ± 0.97 h
Tmax [5]: 8 to 24 h

B1: 20K-1PEG-IL2-N88R-N77C: IL-2 mutant N88R, N77C, conjugation site 77, PEG molecular weight 20kD (conjugate)
chain: APTSSSTKKTQLQLEHLLLDLQMILNGINNYKNPKLTRMLTFKFYMPKKATELKHLQCLEEELKPLEEVLNLAQSKC(PEG 20 kDa)FHLRPRDLISRINVIVLELKGSETTFMCEYADETATIVEFLNRWITFSQSIISTLT
EC50 [4]: 6.14 nM
AUC inf [5]: 22.88236 ± 3.52254 µg·h/mL
AUClast [5]: 21.76228 ± 3.58639 µg·h/mL
CL [5]: 44.4±6.99
Cmax [5]: 1276.71 ± 273.3 ng/mL
MRT [5]: 11.68 ± 0.08 h
T1/2 [5]: 7.62 ± 0.57 h
Tmax [5]: 4 to 8 h

B2: 20K-1PEG-IL2-N88R-N77C (ligand)
chain: APTSSSTKKTQLQLEHLLLDLQMILNGINNYKNPKLTRMLTFKFYMPKKATELKHLQCLEEELKPLEEVLNLAQSKC([maleimide-PEG 20 kDa])FHLRPRDLISRINVIVLELKGSETTFMCEYADETATIVEFLNRWITFSQSIISTLT
modifications: not fully specified
EC50 for activation of the IL-2αβγ triple receptor (STAT5 luciferase reporter gene assay) [6]: 0.0705 nM

B3: 80k-1PEG-IL2-N88R-S75C (ligand)
chain: APTSSSTKKTQLQLEHLLLDLQMILNGINNYKNPKLTRMLTFKFYMPKKATELKHLQCLEEELKPLEEVLNLAQC(PEG 80 kDa)KNFHLRPRDLISRINVIVLELKGSETTFMCEYADETATIVEFLNRWITFSQSIISTLT
EC50 for activation of the IL-2αβγ triple receptor (STAT5 luciferase reporter gene assay, 293EC18/αβγ/JAK3/STAT5 cells) [7]: 1.26 nM

B4: 80k-1PEG-IL2-N88R-N33C (ligand)
chain: APTSSSTKKTQLQLEHLLLDLQMILNGINNYKC(PEG 80 kDa)PKLTRMLTFKFYMPKKATELKHLQCLEEELKPLEEVLNLAQSKNFHLRPRDLISRINVIVLELKGSETTFMCEYADETATIVEFLNRWITFSQSIISTLT
EC50 for activation of the IL-2αβγ triple receptor (STAT5 luciferase reporter gene assay, 293EC18/αβγ/JAK3/STAT5 cells) [7]: 0.00386 nM

B5: 20K-1PEG-IL2-N88R-D109C (ligand)
chain: APTSSSTKKTQLQLEHLLLDLQMILNGINNYKNPKLTRMLTFKFYMPKKATELKHLQCLEEELKPLEEVLNLAQSKNFHLRPRDLISXINVIVLELKGSETTFMCEYAXETATIVEFLNRWITFSQSIISTLT
modifications: not fully specified; one 20 kD PEG-maleimide conjugated to Cys 109
EC50 for activation of the IL-2αβγ triple receptor (STAT5 luciferase reporter gene assay) [6]: 0.0786 nM

B6: 80K-1PEG-IL2-N88R-D109C (ligand)
chain: B5 chain
modifications: one 80 kD PEG-maleimide conjugated to Cys 109
EC50 for activation of the IL-2αβγ triple receptor (STAT5 luciferase reporter gene assay) [6]: 0.407 nM

B7: 80K-1PEG-IL2-N88R-N77C (ligand)
chain: APTSSSTKKTQLQLEHLLLDLQMILNGINNYKNPKLTRMLTFKFYMPKKATELKHLQCLEEELKPLEEVLNLAQSKC(PEG 80 kDa)FHLRPRDLISRINVIVLELKGSETTFMCEYADETATIVEFLNRWITFSQSIISTLT
EC50 for activation of the IL-2αβγ triple receptor (STAT5 luciferase reporter gene assay, 293EC18/αβγ/JAK3/STAT5 cells) [7]: 0.184 nM
EC50 for activation of the IL-2αβγ triple receptor (STAT5 luciferase reporter gene assay) [6]: 0.246 nM
